Laboratory results as given in patent US20080096811A1, “[…] VPAC2 RECEPTOR PEPTIDE AGONISTS” (Eli Lilly and Company, published 2008).
*1 amine or outer side, *2 acyl side, *3 side chain or, on linkers, in order; H or OH if unused. Where no end group is shown, it is not given here. Side-chain parts run from the residue outwards. The star is where a group is joined. γGlu = O=C(O)[C@H](CCC(=O)[*:2])N[*:1]; Palmitoyl = CCCCCCCCCCCCCCCC(=O)*; Hexanoyl = CCCCCC(=O)*

What was measured:
human PAC1 [1] = biological target: T1, human PAC1 (Homo sapiens, UniProt P41586); experiment: biochemical
T1 sequence (P41586 21-468): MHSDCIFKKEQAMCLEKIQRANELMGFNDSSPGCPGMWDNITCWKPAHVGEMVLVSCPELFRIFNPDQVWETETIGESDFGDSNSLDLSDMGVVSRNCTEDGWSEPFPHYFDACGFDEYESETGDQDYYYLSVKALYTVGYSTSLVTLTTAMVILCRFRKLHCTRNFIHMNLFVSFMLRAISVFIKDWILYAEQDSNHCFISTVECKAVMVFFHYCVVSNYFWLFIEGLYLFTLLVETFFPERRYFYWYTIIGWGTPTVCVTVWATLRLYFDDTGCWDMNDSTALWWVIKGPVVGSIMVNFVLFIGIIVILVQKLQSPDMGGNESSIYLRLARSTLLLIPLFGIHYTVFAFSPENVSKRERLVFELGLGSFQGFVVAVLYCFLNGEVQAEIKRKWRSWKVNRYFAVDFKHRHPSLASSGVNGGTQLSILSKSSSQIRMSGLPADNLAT
Protocol: For this assay, the solutions and equipment include:
Presoak solution: 0.5% Polyethyleneamine in Aqua dest.
Buffer for flushing filter plates: 25 mM […] pH 7.4
Blocking buffer: 25 mM HEPES pH 7.4; 0.2% protease free BSA
Assay buffer: 25 mM HEPES pH 7.4; 0.5% protease free BSA
Dilution and assay plate: PS-Microplate, U form
Filtration Plate Multiscreen FB Opaque Plate; […] Type B Glasfiber filter
In order to prepare the filter plates, aspirate the presoak solution by vacuum filtration. Flush the plates twice with 200 μL flush buffer. Add 200 μL blocking buffer to the filter plate. The filter plate is then incubated […] for 1 hour at room temperature.
Fill the assay plate with 25 μL assay buffer, 25 μL membranes (2.5 μg) suspended in assay buffer, 25 μL compound (agonist) in assay buffer, and 25 μL tracer (about 40000 cpm) in assay buffer. Incubate the filled plate for 1 hour with shaking.
Conduct the transfer from assay plate to filter plate. Aspirate the blocking buffer by vacuum filtration and wash two times with flush buffer. Transfer 90 μL from the assay plate to the filter plate. Aspirate the 90 μL transferred from assay plate and wash three times with 200 μL flush buffer. Remove the plastic support. Dry for 1 hour at 60° C. Add 30 μL Microscint. Perform the count.

human PAC1 [2] = biological target: T1, human PAC1; experiment: cell-based
Protocol: (§1) Also, the cells are washed twice. The cells are incubated in assay buffer plus IBMX for 15 minutes at room temperature. […] The stimuli are present for 30 minutes. Then, the assay buffer is gently removed. […] At day 3, the assay described above for the VPAC2 receptor cell line is performed.

human VPAC2 [3] = biological target: T2, human VPAC2 (Homo sapiens, UniProt P41587); experiment: Filter binding assay, human VPAC2 membranes, 125I-labeled VIP tracer
T2 construct: expressed in transfected cells
T2 sequence (P41587 24-438): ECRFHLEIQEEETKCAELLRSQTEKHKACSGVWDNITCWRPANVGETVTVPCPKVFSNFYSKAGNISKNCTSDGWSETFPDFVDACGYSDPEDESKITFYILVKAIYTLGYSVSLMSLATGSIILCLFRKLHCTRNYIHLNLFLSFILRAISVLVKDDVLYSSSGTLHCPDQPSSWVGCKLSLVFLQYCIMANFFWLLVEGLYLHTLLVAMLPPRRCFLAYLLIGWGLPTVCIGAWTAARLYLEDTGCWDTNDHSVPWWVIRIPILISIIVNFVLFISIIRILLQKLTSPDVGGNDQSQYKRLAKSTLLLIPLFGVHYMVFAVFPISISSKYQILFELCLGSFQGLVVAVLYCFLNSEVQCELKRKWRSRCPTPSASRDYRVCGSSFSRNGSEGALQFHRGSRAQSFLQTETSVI

human VPAC2 [4] = biological target: T2, human VPAC2; experiment: Alpha screen cAMP in vitro potency, human VPAC2; assay type: cell-based
human VPAC2 [5] = biological target: T2, human VPAC2; experiment: DiscoveRx cAMP in vitro potency, human VPAC2; assay type: cell-based
Protocol: as §1

human VPAC1 [6] = biological target: T3, human VPAC1 (Homo sapiens, UniProt P32241); experiment: Filter binding assay, human VPAC1 membranes, 125I-labeled VIP tracer; design: expressed in transfected cells
T3 sequence (P32241 31-457): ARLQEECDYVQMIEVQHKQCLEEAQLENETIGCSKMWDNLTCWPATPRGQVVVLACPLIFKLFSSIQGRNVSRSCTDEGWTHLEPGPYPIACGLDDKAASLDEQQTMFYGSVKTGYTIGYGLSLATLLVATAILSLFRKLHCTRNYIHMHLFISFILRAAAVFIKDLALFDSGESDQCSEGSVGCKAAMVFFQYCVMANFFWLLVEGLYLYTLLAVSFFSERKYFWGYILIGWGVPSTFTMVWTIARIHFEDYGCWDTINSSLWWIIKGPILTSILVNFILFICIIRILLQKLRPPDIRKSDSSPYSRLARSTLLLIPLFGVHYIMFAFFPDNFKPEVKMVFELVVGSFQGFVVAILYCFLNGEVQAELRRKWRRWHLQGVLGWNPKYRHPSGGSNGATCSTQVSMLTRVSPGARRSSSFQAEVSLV

human VPAC1 [7] = biological target: T3, human VPAC1; experiment: DiscoveRx cAMP in vitro potency, human VPAC1; assay type: cell-based; design: expressed in transfected cells; host or cells: CHO-PO, transient transfection (Lipofectamine)
Protocol: as §1

[8] = biological target: T4, human VPAC2 receptor (human) (UniProt P41587)
T4 sequence: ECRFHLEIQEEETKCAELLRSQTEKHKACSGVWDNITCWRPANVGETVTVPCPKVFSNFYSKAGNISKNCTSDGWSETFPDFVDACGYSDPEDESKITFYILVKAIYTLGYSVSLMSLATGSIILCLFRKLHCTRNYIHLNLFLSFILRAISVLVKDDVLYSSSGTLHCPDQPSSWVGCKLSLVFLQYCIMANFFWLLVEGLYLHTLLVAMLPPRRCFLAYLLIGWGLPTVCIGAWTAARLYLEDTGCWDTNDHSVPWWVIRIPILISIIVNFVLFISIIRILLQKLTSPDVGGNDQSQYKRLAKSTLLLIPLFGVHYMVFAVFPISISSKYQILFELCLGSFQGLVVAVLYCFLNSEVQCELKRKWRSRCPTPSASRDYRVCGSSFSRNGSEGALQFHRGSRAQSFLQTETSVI

[9] = biological target: T5, human VPAC1 receptor (human) (UniProt P32241)
T5 sequence: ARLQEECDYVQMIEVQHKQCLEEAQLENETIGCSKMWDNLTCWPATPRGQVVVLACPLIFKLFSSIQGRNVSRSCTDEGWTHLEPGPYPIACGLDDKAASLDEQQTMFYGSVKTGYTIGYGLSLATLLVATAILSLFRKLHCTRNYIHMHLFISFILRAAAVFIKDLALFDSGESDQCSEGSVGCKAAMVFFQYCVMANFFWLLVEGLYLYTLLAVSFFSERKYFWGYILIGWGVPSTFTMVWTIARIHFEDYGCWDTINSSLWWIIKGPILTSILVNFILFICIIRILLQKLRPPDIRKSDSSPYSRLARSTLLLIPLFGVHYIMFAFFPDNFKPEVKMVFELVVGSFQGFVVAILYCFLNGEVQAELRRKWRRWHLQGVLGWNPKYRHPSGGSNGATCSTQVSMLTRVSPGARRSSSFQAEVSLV

human PAC1 receptor = human PAC1 receptor (human, UniProt P41586)
Chain of human PAC1 receptor (P41586 21-468): as the sequence (P41586 21-468) above

rat VPAC1 receptor = biological target: T6, rat VPAC1 receptor (rat, UniProt P30083); experiment: cell-based or functional assay
T6 sequence: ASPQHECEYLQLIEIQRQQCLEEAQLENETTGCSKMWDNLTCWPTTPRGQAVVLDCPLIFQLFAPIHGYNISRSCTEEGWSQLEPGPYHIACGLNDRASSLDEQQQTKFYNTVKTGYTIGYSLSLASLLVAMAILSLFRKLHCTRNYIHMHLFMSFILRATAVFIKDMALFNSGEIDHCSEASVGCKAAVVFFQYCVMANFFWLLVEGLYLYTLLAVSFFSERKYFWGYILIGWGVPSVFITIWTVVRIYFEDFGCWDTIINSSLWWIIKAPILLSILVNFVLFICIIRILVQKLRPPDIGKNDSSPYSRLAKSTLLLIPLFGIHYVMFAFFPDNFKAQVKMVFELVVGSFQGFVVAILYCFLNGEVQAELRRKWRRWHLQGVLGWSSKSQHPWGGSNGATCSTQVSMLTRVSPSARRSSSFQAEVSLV

rat VPAC2 receptor = biological target: T7, rat VPAC2 receptor (rat, UniProt P35000); experiment: cell-based or functional assay
T7 sequence: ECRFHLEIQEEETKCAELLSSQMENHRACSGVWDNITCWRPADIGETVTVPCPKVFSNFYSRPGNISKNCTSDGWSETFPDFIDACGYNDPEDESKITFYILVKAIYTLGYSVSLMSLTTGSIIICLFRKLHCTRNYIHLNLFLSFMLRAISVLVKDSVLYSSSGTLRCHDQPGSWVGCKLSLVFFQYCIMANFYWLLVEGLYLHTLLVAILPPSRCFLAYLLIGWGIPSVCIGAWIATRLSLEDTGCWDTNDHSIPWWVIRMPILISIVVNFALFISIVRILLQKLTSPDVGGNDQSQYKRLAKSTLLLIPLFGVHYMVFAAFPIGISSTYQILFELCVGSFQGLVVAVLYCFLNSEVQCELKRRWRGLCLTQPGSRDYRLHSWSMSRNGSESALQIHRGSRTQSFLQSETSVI

Molecule: HSDAVFTDNYTRLRKQVAAKKYLQSIKNSRTSPPP-NH2 [Agonist P5]
- IC50 (human PAC1 [1]): 234 nM
- EC50 (human PAC1 [2]): 30 nM
- IC50 (human VPAC2 [3]): 0.67 nM
- EC50 (human VPAC2 [4]): 1.5 nM
- EC50 (human VPAC2 [5]): 1.21 nM
- IC50 (human VPAC1 [6]): 56.7 nM
- EC50 (human VPAC1 [7]): 1.1 nM

Molecule: Ac-HSDAVFTDNYTRLRKQVAAKKYLQSIKNSRTSPPP-NH2 [Agonist P32]
- EC50 (human PAC1 [2]): 125 nM
- IC50 (human VPAC2 [3]): 0.89 nM
- EC50 (human VPAC2 [4]): 0.32 nM
- EC50 (human VPAC2 [5]): 0.65 nM
- IC50 (human VPAC1 [6]): 38.3 nM
- EC50 (human VPAC1 [7]): 8.24 nM

B1: P30 (peptide)
peptide: Hexanoyl-HSDAVFTDNYTRLRKQVAAKKYLQSIKNSRTSPPP-NH2
SMILES: CCCCCC(=O)N[C@@H](Cc1c[nH]cn1)C(=O)N[C@@H](CO)C(=O)N[C@@H](CC(=O)O)C(=O)N[C@@H](C)C(=O)N[C@H](C(=O)N[C@@H](Cc1ccccc1)C(=O)N[C@H](C(=O)N[C@@H](CC(=O)O)C(=O)N[C@@H](CC(N)=O)C(=O)N[C@@H](Cc1ccc(O)cc1)C(=O)N[C@H](C(=O)N[C@@H](CCCNC(=N)N)C(=O)N[C@@H](CC(C)C)C(=O)N[C@@H](CCCNC(=N)N)C(=O)N[C@@H](CCCCN)C(=O)N[C@@H](CCC(N)=O)C(=O)N[C@H](C(=O)N[C@@H](C)C(=O)N[C@@H](C)C(=O)N[C@@H](CCCCN)C(=O)N[C@@H](CCCCN)C(=O)N[C@@H](Cc1ccc(O)cc1)C(=O)N[C@@H](CC(C)C)C(=O)N[C@@H](CCC(N)=O)C(=O)N[C@@H](CO)C(=O)N[C@H](C(=O)N[C@@H](CCCCN)C(=O)N[C@@H](CC(N)=O)C(=O)N[C@@H](CO)C(=O)N[C@@H](CCCNC(=N)N)C(=O)N[C@H](C(=O)N[C@@H](CO)C(=O)N1CCC[C@H]1C(=O)N1CCC[C@H]1C(=O)N1CCC[C@H]1C(N)=O)[C@@H](C)O)[C@@H](C)CC)C(C)C)[C@@H](C)O)[C@@H](C)O)C(C)C
- EC50 (nM) for cAMP generation, Alpha Screen [8]: 0.08 nM
- EC50 (nM) for cAMP generation, DiscoveRx [8]: 0.09 nM
- EC50 (nM) for cAMP generation, DiscoveRx [9]: 6.45 nM
- EC50 (nM) for cAMP generation, DiscoveRx (human PAC1 receptor): 27 nM
- EC50 for cAMP generation, DiscoveRx (rat VPAC1 receptor): 0.62 nM

B2: P81 (peptide)
peptide: Hexanoyl-HSDAVFTDNYTRLRKQVAAKKYLQSIKNSRTSPPPK([γGlu-Palmitoyl])-NH2
SMILES: CCCCCCCCCCCCCCCC(=O)N[C@@H](CCC(=O)NCCCC[C@H](NC(=O)[C@@H]1CCCN1C(=O)[C@@H]1CCCN1C(=O)[C@@H]1CCCN1C(=O)[C@H](CO)NC(=O)[C@@H](NC(=O)[C@H](CCCNC(=N)N)NC(=O)[C@H](CO)NC(=O)[C@H](CC(N)=O)NC(=O)[C@H](CCCCN)NC(=O)[C@@H](NC(=O)[C@H](CO)NC(=O)[C@H](CCC(N)=O)NC(=O)[C@H](CC(C)C)NC(=O)[C@H](Cc1ccc(O)cc1)NC(=O)[C@H](CCCCN)NC(=O)[C@H](CCCCN)NC(=O)[C@H](C)NC(=O)[C@H](C)NC(=O)[C@@H](NC(=O)[C@H](CCC(N)=O)NC(=O)[C@H](CCCCN)NC(=O)[C@H](CCCNC(=N)N)NC(=O)[C@H](CC(C)C)NC(=O)[C@H](CCCNC(=N)N)NC(=O)[C@@H](NC(=O)[C@H](Cc1ccc(O)cc1)NC(=O)[C@H](CC(N)=O)NC(=O)[C@H](CC(=O)O)NC(=O)[C@@H](NC(=O)[C@H](Cc1ccccc1)NC(=O)[C@@H](NC(=O)[C@H](C)NC(=O)[C@H](CC(=O)O)NC(=O)[C@H](CO)NC(=O)[C@H](Cc1c[nH]cn1)NC(=O)CCCCC)C(C)C)[C@@H](C)O)[C@@H](C)O)C(C)C)[C@@H](C)CC)[C@@H](C)O)C(N)=O)C(=O)O
- EC50 (nM) for cAMP generation, Alpha Screen [8]: 0.01 nM
- EC50 (nM) for cAMP generation, DiscoveRx [8]: 0.18 nM
- EC50 for cAMP generation, DiscoveRx (rat VPAC1 receptor): 0.8 nM
- EC50 for cAMP generation, DiscoveRx (rat VPAC2 receptor): 0.05 nM

Molecule: HSDAVFTDNYTRLRKQVAAKKYLQSIKNSRTSPPP-NH2 [P5]
- EC50 (nM) for cAMP generation, Alpha Screen [8]: 1.5 nM
- EC50 (nM) for cAMP generation, DiscoveRx [8]: 1.21 nM
- EC50 (nM) for cAMP generation, DiscoveRx [9]: 1.1 nM
- EC50 (nM) for cAMP generation, DiscoveRx (human PAC1 receptor): 30 nM
- EC50 for cAMP generation, DiscoveRx (rat VPAC1 receptor): 0.96 nM
- EC50 for cAMP generation, DiscoveRx (rat VPAC2 receptor): 2.23 nM
